Target: SARS-CoV-2 spike S1 subunit (SARS-CoV-2, UniProt P0DTC2 14-685)
Test: bead-based fluorescence

Binder | binding result
SpS1-C4 (ssDNA) DNA: GAACATTGGCGTCCGTGAGCAGCTCGTGGTTGTTTGCTTGTATACTTTTGTGGTTTATCTTGTTTCTGATCACTTCCTCAAACGCCCAA | binds
SpS1-C1 (ssDNA) DNA: GAACATTGGCGTCCGTGAGTGAGACCATAGTCCAGCGAACTAAACCTACCCTAAAGGGCAAGGAAGACGGGCACTTCCTCAAACGCCCAA | binds

— paper PMC9993738
